Paper PMC4892509, “Binding of the Fkh1 Forkhead Associated Domain to a Phosphopeptide within the Mph1 DNA Helicase Regulates Mating-Type Switching in Budding Yeast” (PLoS Genetics, 2016)
Non-standard residues stand in square brackets, D forms with d. No end group written: not given here. *: point of attachment. 5FAM = O=C1OC2(c3ccc(O)cc3Oc3cc(O)ccc32)c2ccc(C(=O)*)cc21; pT = C[C@@H](OP(=O)(O)O)[C@H](N)C(=O)O; Ahx = NCCCCCC(=O)O

How the values were obtained:
Fkh1-6xHis = molecular target: T1, Fkh1-6xHis (Saccharomyces cerevisiae, UniProt P40466); assay: Fluorescence anisotropy binding of Mph1-derived peptides to recombinant Fkh1-6xHis
T1 construct: C-terminally His-tagged full length Fkh1 protein was expressed from a pET28b expression vector in Rosetta E. coli; made in house; host or cells: Rosetta E. coli (pET28b)
T1 sequence (P40466 1-484): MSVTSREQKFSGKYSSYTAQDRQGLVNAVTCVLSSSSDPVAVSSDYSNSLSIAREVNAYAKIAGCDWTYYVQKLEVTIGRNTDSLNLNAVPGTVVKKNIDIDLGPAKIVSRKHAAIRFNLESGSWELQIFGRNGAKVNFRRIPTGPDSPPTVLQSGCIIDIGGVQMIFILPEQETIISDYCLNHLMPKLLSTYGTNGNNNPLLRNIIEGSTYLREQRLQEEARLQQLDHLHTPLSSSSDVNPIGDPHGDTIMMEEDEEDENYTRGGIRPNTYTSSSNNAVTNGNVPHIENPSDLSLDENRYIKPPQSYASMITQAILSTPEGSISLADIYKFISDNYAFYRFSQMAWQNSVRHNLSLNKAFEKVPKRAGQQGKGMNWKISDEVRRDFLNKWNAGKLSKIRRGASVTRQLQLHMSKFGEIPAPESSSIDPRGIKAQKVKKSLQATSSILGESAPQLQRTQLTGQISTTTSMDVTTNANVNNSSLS
Protocol: To this end, recombinant Fkh1-6xHis was purified from E. coli and its ability to bind an 18-residue peptide representing Mph1(772–789) was assessed by fluorescence anisotropy (Fig 6).
(B) Peptide binding assay of Fkh1-6xHis and Mph1-derived peptides using fluorescence anisotropy. Binding reactions contained the indicated concentration of purified His-tagged Fkh1 and 3 nM 5-carboxyfluorescein labeled Mph1-derived peptide (5cf-aha-[sequence]) with threonines phosphorylated or unmodified, as indicated.
Peptides (constant final concentration of 3 nM) were mixed with titrations of purified Fkh1-6xHis protein in binding buffer (50 mM HEPES pH 7.0, 200 mM KCl, 10% glycerol, 5 mM BME, 1 mM EDTA, 1 mM EGTA, 5 mM MgOAc, 0.02% NP-40, protease inhibitors (Calbiotech)). Polarization at each concentration was measured in triplicates in 384-well polystyrene black microplates (Thermo Fisher Scientific #262260) by a Biotek Synergy H4 multimode plate reader (light source: xenon flash, offset from top: 7 mm, sensitivity: 60%, excitation: 485/20 nm, emission: 528/20 nm, both parallel and perpendicular, normal read speed). Fraction bound (Fb) at each concentration was calculated based on the corresponding polarization values (P): Fbc = (Pc—Pmin) / (Pmax—Pmin), where Pmin is the polarization value of the no-protein control and Pmax is the polarization value of the saturation value for that peptide. […]

Fkh1 = Fkh1 (UniProt P40466); assay: fluorescence anisotropy titration
Recombinant Fkh1-6xHis = molecular target: T2, Recombinant Fkh1-6xHis (S. cerevisiae, UniProt P40466 1-484); assay: fluorescence polarisation; fluorescence anisotropy: 3 nM 5-carboxyfluorescein labeled peptide, titration of purified Fkh1-6xHis; 50 mM HEPES pH 7.0, 200 mM KCl, 10% glycerol, 5 mM BME, 1 mM EDTA, 1 mM EGTA, 5 mM MgOAc, 0.02% NP-40; Fb = [protein] / ([protein] + Kd); conditions: both partners purified
T2 construct: Fkh1, S. cerevisiae, full length; also called His-tagged Fkh1; purified Fkh1; source: Rosetta E. coli (pET28b), purified (nickel chromatography); not shown: 6xHis, C-terminal, kept
T2 sequence (looked up): T1 sequence (P40466 1-484)

CC(C)C[C@H](NC(=O)[C@H](CO)NC(=O)[C@H](CO)NC(=O)[C@H](CO)NC(=O)[C@H](C)NC(=O)[C@H](CCC(=O)O)NC(=O)[C@H](CCC(=O)O)NC(=O)[C@@H](NC(=O)[C@H](CO)NC(=O)[C@H](CC(=O)O)NC(=O)[C@H](CC(N)=O)NC(=O)[C@H](CCC(=O)O)NC(=O)CCCCCNC(=O)c1ccc2c(c1)C(=O)OC21c2ccc(O)cc2Oc2cc(O)ccc21)[C@@H](C)O)C(=O)N[C@@H](CCC(=O)O)C(=O)N[C@H](C(=O)N[C@@H](CCC(=O)O)C(=O)N[C@@H](CC(=O)O)C(=O)N[C@@H](CCC(=O)O)C(=O)N[C@@H](CCC(=O)O)C(=O)O)[C@@H](C)O [Non-phosphorylated]
fold reduced affinity for Fkh1 (non-phosphorylated vs peptide phosphorylated on both T776 and T785) (Fkh1-6xHis; relative to peptide phosphorylated on both T776 and T785): > 100 -fold

CC(C)C[C@H](NC(=O)[C@H](CO)NC(=O)[C@H](CO)NC(=O)[C@H](CO)NC(=O)[C@H](C)NC(=O)[C@H](CCC(=O)O)NC(=O)[C@H](CCC(=O)O)NC(=O)[C@@H](NC(=O)[C@H](CO)NC(=O)[C@H](CC(=O)O)NC(=O)[C@H](CC(N)=O)NC(=O)[C@H](CCC(=O)O)NC(=O)CCCCCNC(=O)c1ccc2c(c1)C(=O)OC21c2ccc(O)cc2Oc2cc(O)ccc21)[C@@H](C)OP(=O)(O)O)C(=O)N[C@@H](CCC(=O)O)C(=O)N[C@H](C(=O)N[C@@H](CCC(=O)O)C(=O)N[C@@H](CC(=O)O)C(=O)N[C@@H](CCC(=O)O)C(=O)N[C@@H](CCC(=O)O)C(=O)O)[C@@H](C)OP(=O)(O)O [pT776 pT785]
binding to purified Fkh1, result in words (Fkh1-6xHis; 3 nM labeled peptide, pH 7.0): bound purified Fkh1 efficiently

Mph1 772-789 (from UniProt P40562) pT776 pT785 peptide
binding against the reference (Fkh1; reference: pT776 peptide, sites T785): stronger | binding against the reference (Fkh1; reference: pT785 peptide, sites T776): stronger

Mph1 772-789 (from UniProt P40562) pT776 peptide
binding against the reference (Fkh1; reference: unphosphorylated peptide, sites T776): stronger

Mph1 772-789 (from UniProt P40562) pT785 peptide
binding against the reference (Fkh1; reference: unphosphorylated peptide, sites T785): stronger

B1: Mph1(772–789) peptide phosphorylated on both T776 and T785 (peptide)
peptide: {5FAM-Ahx}-ENDS[pT]EEASSSLE[pT]EDEE
notes: Mph1, S. cerevisiae, 18-residue peptide representing Mph1(772–789); source: synthetic peptide
Kd (Recombinant Fkh1-6xHis): 2.2 µM

B2: Mph1(772–789) peptide, non-phosphorylated (peptide)
peptide: {5FAM-Ahx}-ENDSTEEASSSLETEDEE
notes: as for B1
Kd (Recombinant Fkh1-6xHis): 271 µM
